From patent publication US20190271705A1 (published 2019)

Experiments:
Assay in all cases: fluorescence polarization
SIG11-pY668 = target: SIG11-pY668
EGFR-pY978 = target: EGFR-pY978
VEGFR1-pY1213mod = target: VEGFR1-pY1213mod
RSKL-pY423 = target: RSKL-pY423
EGFR-pY1110 = target: EGFR-pY1110
MidT-pY324 = target: MidT-pY324
TRAF7-pY275mod = target: TRAF7-pY275mod

B1: S10A (designed binder)
chain: MKIEEHHHHHHSSGRENLYFQGGAAQPAAPVDSIQAEEWYFGKLGRKDAERQLLSFGNPRGTFLIRESETTKGAYALSIRDWDDMKGDHVKHYKIRKLDNGGYYITTRAQFETLQQLVQHYSERAAGLSSRLVVPSHKGAAA
SIG11-pY668
  Kd: 48 nM
EGFR-pY978
  Kd: 1100 nM
VEGFR1-pY1213mod
  Kd: 5800 nM
RSKL-pY423
  Kd: 2500 nM
EGFR-pY1110
  Kd: 13000 nM
MidT-pY324
  Kd: 120 nM
TRAF7-pY275mod
  Kd: 1300 nM

B2: T8V S10A K15I (designed binder)
chain: MKIEEHHHHHHSSGRENLYFQGGAAQPAAPVDSIQAEEWYFGKLGRKDAERQLLSFGNPRGTFLIRESETVKGAYALSIRDWDDMKGDHVKHYIIRKLDNGGYYITTRAQFETLQQLVQHYSERAAGLSSRLVVPSHKGAAA
SIG11-pY668
  Kd: 190 nM
EGFR-pY978
  Kd: 130 nM
VEGFR1-pY1213mod
  Kd: 410 nM
RSKL-pY423
  Kd: 880 nM
EGFR-pY1110
  Kd: 1400 nM
MidT-pY324
  Kd: 98 nM
TRAF7-pY275mod
  Kd: 450 nM

B3: S10A K15L (designed binder)
chain: MKIEEHHHHHHSSGRENLYFQGGAAQPAAPVDSIQAEEWYFGKLGRKDAERQLLSFGNPRGTFLIRESETTKGAYALSIRDWDDMKGDHVKHYLIRKLDNGGYYITTRAQFETLQQLVQHYSERAAGLSSRLVVPSHKGAAA
SIG11-pY668
  Kd: 120 nM
EGFR-pY978
  Kd: 130 nM
VEGFR1-pY1213mod
  Kd: 400 nM
RSKL-pY423
  Kd: 1600 nM
EGFR-pY1110
  Kd: 2000 nM
MidT-pY324
  Kd: 110 nM
TRAF7-pY275mod
  Kd: 480 nM

B4: K2E T8V S10A K15I (designed binder)
chain: MKIEEHHHHHHSSGRENLYFQGGAAQPAAPVDSIQAEEWYFGKLGREDAERQLLSFGNPRGTFLIRESETVKGAYALSIRDWDDMKGDHVKHYIIRKLDNGGYYITTRAQFETLQQLVQHYSERAAGLSSRLVVPSHKGAAA
SIG11-pY668
  Kd: 900 nM
EGFR-pY978
  Kd: 170 nM
VEGFR1-pY1213mod
  Kd: 580 nM
RSKL-pY423
  Kd: 2500 nM
EGFR-pY1110
  Kd: 3800 nM
MidT-pY324
  Kd: 280 nM
TRAF7-pY275mod
  Kd: 990 nM

B5: T7S S10A K15L (designed binder)
chain: MKIEEHHHHHHSSGRENLYFQGGAAQPAAPVDSIQAEEWYFGKLGRKDAERQLLSFGNPRGTFLIRESESTKGAYALSIRDWDDMKGDHVKHYLIRKLDNGGYYITTRAQFETLQQLVQHYSERAAGLSSRLVVPSHKGAAA
SIG11-pY668
  Kd: 71 nM
EGFR-pY978
  Kd: 210 nM
VEGFR1-pY1213mod
  Kd: 640 nM
RSKL-pY423
  Kd: 1500 nM
EGFR-pY1110
  Kd: 1600 nM
MidT-pY324
  Kd: 49 nM
TRAF7-pY275mod
  Kd: 300 nM

B6: T8V (designed binder)
chain: MKIEEHHHHHHSSGRENLYFQGGAAQPAAPVDSIQAEEWYFGKLGRKDAERQLLSFGNPRGTFLIRESETVKGAYSLSIRDWDDMKGDHVKHYKIRKLDNGGYYITTRAQFETLQQLVQHYSERAAGLSSRLVVPSHKGAAA
SIG11-pY668
  Kd: 1200 nM
EGFR-pY978
  Kd: 2400 nM
VEGFR1-pY1213mod
  Kd: 24000 nM
RSKL-pY423
  Kd: 14000 nM
EGFR-pY1110
  Kd: 41000 nM
MidT-pY324
  Kd: 370 nM
TRAF7-pY275mod
  Kd: 5800 nM

B7: S10V (designed binder)
chain: MKIEEHHHHHHSSGRENLYFQGGAAQPAAPVDSIQAEEWYFGKLGRKDAERQLLSFGNPRGTFLIRESETTKGAYVLSIRDWDDMKGDHVKHYKIRKLDNGGYYITTRAQFETLQQLVQHYSERAAGLSSRLVVPSHKGAAA
SIG11-pY668
  Kd: 660 nM
EGFR-pY978
  Kd: 5500 nM
VEGFR1-pY1213mod
  Kd: 9000 nM
RSKL-pY423
  Kd: 6500 nM
EGFR-pY1110
  Kd: 34000 nM
MidT-pY324
  Kd: 360 nM
TRAF7-pY275mod
  Kd: 4500 nM

B8: T8V S10A K15L (designed binder)
chain: MKIEEHHHHHHSSGRENLYFQGGAAQPAAPVDSIQAEEWYFGKLGRKDAERQLLSFGNPRGTFLIRESETVKGAYALSIRDWDDMKGDHVKHYLIRKLDNGGYYITTRAQFETLQQLVQHYSERAAGLSSRLVVPSHKGAAA
SIG11-pY668
  Kd: 26 nM
EGFR-pY978
  Kd: 8.5 nM
VEGFR1-pY1213mod
  Kd: 58 nM
RSKL-pY423
  Kd: 77 nM
EGFR-pY1110
  Kd: 340 nM
MidT-pY324
  Kd: 11 nM
TRAF7-pY275mod
  Kd: 60 nM

B9: T8V K15L (designed binder)
chain: MKIEEHHHHHHSSGRENLYFQGGAAQPAAPVDSIQAEEWYFGKLGRKDAERQLLSFGNPRGTFLIRESETVKGAYSLSIRDWDDMKGDHVKHYLIRKLDNGGYYITTRAQFETLQQLVQHYSERAAGLSSRLVVPSHKGAAA
SIG11-pY668
  Kd: 150 nM
EGFR-pY978
  Kd: 120 nM
VEGFR1-pY1213mod
  Kd: 440 nM
RSKL-pY423
  Kd: 530 nM
EGFR-pY1110
  Kd: 1700 nM
MidT-pY324
  Kd: 140 nM
TRAF7-pY275mod
  Kd: 450 nM

B10: ΔT8 S10A K15L (designed binder)
chain: MKIEEHHHHHHSSGRENLYFQGGAAQPAAPVDSIQAEEWYFGKLGRKDAERQLLSFGNPRGTFLIRESETTKGAYSLSIRDWDDMKGDHVKHYKIRKLDNGGYYITTRAQFETLQQLVQHYSERAAGLSSRLVVPSHKGAAA
SIG11-pY668
  Kd: 550 nM
RSKL-pY423
  Kd: 6100 nM
EGFR-pY1110
  Kd: 15000 nM
MidT-pY324
  Kd: 260 nM
TRAF7-pY275mod
  Kd: 2700 nM

B11: T8I S10A K15L (designed binder)
chain: MKIEEHHHHHHSSGRENLYFQGGAAQPAAPVDSIQAEEWYFGKLGRKDAERQLLSFGNPRGTFLIRESETIKGAYALSIRDWDDMKGDHVKHYLIRKLDNGGYYITTRAQFETLQQLVQHYSERAAGLSSRLVVPSHKGAAA
SIG11-pY668
  Kd: 120 nM
EGFR-pY978
  Kd: 32 nM
VEGFR1-pY1213mod
  Kd: 180 nM
RSKL-pY423
  Kd: 190 nM
EGFR-pY1110
  Kd: 700 nM
MidT-pY324
  Kd: 43 nM
TRAF7-pY275mod
  Kd: 330 nM

B12: none (wild-type) (other)
chain: MKIEEHHHHHHSSGRENLYFQGGAAQPAAPVDSIQAEEWYFGKLGRKDAERQLLSFGNPRGTFLIRESETTKGAYSLSIRDWDDMKGDHVKHYKIRKLDNGGYYITTRAQFETLQQLVQHYSERAAGLSSRLVVPSHKGAAA
SIG11-pY668
  Kd: 430 nM
RSKL-pY423
  Kd: 12000 nM
EGFR-pY1110
  Kd: 26000 nM
MidT-pY324
  Kd: 490 nM
TRAF7-pY275mod
  Kd: 6000 nM

B13: K15L (designed binder)
chain: MKIEEHHHHHHSSGRENLYFQGGAAQPAAPVDSIQAEEWYFGKLGRKDAERQLLSFGNPRGTFLIRESETTKGAYSLSIRDWDDMKGDHVKHYLIRKLDNGGYYITTRAQFETLQQLVQHYSERAAGLSSRLVVPSHKGAAA
SIG11-pY668
  Kd: 450 nM
EGFR-pY978
  Kd: 670 nM
VEGFR1-pY1213mod
  Kd: 2800 nM
RSKL-pY423
  Kd: 3300 nM
EGFR-pY1110
  Kd: 5800 nM
MidT-pY324
  Kd: 420 nM
TRAF7-pY275mod
  Kd: 2200 nM

B14: S10V K15L (designed binder)
chain: MKIEEHHHHHHSSGRENLYFQGGAAQPAAPVDSIQAEEWYFGKLGRKDAERQLLSFGNPRGTFLIRESETTKGAYVLSIRDWDDMKGDHVKHYLIRKLDNGGYYITTRAQFETLQQLVQHYSERAAGLSSRLVVPSHKGAAA
SIG11-pY668
  Kd: 320 nM
EGFR-pY978
  Kd: 430 nM
VEGFR1-pY1213mod
  Kd: 1600 nM
RSKL-pY423
  Kd: 1500 nM
EGFR-pY1110
  Kd: 4400 nM
MidT-pY324
  Kd: 94 nM
TRAF7-pY275mod
  Kd: 2100 nM
